Molecular target: Arabidopsis thaliana ornithine transcarbamylase (Arabidopsis thaliana) (UniProt O50039)
Test: crystal structure; AtOTC co-crystallised with 20 mM ornithine or carbamoyl phosphate; HEPES 0.1 M pH 6.0, 0.3 M Li2SO4, PEG 3350, about 20°C; three subunits around a non-crystallographic three-fold axis

Chain of Arabidopsis thaliana ornithine transcarbamylase (O50039 53-375): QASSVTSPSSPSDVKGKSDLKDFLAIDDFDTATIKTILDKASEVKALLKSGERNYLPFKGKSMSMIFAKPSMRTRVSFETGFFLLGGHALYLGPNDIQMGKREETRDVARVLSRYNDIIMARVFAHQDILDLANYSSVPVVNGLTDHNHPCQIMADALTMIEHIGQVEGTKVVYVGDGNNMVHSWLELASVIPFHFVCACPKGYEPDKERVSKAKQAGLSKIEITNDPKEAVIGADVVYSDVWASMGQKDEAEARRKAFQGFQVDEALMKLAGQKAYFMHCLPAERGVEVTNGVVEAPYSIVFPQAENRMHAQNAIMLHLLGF

Question: With “Arabidopsis thaliana ornithine transcarbamylase (from UniProt O50039 53-375) (enzyme)” as the substance, how does the stoichiometry N read?
Answer: The stoichiometry N was 3.

From paper PMC10765591, “Structural analysis and molecular substrate recognition properties of Arabidopsis thaliana ornithine transcarbamylase, the molecular target of phaseolotoxin produced by Pseudomonas syringae” (Frontiers in Plant Science, 2023)
